Results on 3 molecules are retold here after paper PMC7536154, “Biochemical characterization of ferric uptake regulator (Fur) from Aliivibrio salmonicida. Mapping the DNA sequence specificity through binding studies and structural modelling”.

The target in data set [1] is Ferric uptake regulator (Fur) from Aliivibrio salmonicida (Aliivibrio salmonicida). Kind of data set: SEC; Superdex 200 16/60; 300 mM NaCl, 50 mM Tris-HCl, 5 mM beta-mercaptoethanol, pH 7.5; second purification step after IMAC. (Size exclusion chromatography separates by hydrodynamic size, large species first.)
The target of data set [2] is T1, AsFur (ferric uptake regulator) (Aliivibrio salmonicida, UniProt Q7AUU7 1-147).
T1 sequence: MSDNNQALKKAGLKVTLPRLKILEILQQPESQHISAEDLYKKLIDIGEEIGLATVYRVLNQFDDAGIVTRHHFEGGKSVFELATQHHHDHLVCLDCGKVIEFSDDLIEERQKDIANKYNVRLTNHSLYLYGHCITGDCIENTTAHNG
Kind of data set: EMSA; Mn2+ (100 uM MnCl2); EMSA: 20 mM Tris acetate pH 8.0, 1 mM MgCl2, 50 mM KCl, 1 mM DTT, 100 uM MnCl2, RT, 5 uM DNA, 0-80 uM AsFur, gel at 6 C; protection assay: 100 mM BisTrisPropane pH 7.5, 100 mM KCl, 5 mM MgSO4, 20 uM AsFur, 10 nM plasmid, RT then HinfI 37 C. The settings on record: protein: recombinant; tags: none stated (pDEST14; histidine-rich protein purified by IMAC); chain copies: 2; blunt.

What is called stoichiometry N is the number of molecules, sites or subunits per partner or assembly. For the molecule “Ferric uptake regulator (Fur) from Aliivibrio salmonicida (natural protein)”, the stoichiometry N in data set [1] turned out to be 2.

B1: Vibrio consensus Fur box (dsDNA)
DNA 1: AATGATAATAATTATCATT
DNA 2: AATGATAATTATTATCATT
As for B1, the binding result in data set [2] is “binds”.

B2: Vibrio anti-consensus (least conserved) (dsDNA)
DNA 1: CCGTGCGCACTCCGCAGGG
DNA 2: CCCTGCGGAGTGCGCACGG
For B2, in data set [2], the binding result is “no binding”.
